Assay results published in paper PMC9482650, “Quantitative fragmentomics allow affinity mapping of interactomes” (Nature Communications, 2022).

How the values were obtained:
Experiment in all cases: PDZ-AP-MS, biotinylated MBP-PDZ baits
Format in all cases: binding, human
HaCat cell extract preys = test system: HaCat cell extract preys
Method in brief: (§1)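 Biotinylated His6-AviTag-MBP-PDZ baits, or MBP alone, saturated streptavidin resin and were then biotin-blocked. Each was incubated with 1 mg cell lysate for 2 h at 4 °C, washed, and eluted in 8 M urea. Eluates were digested with Lys-C/trypsin, run by nanoLC-MS/MS on an Orbitrap Elite (top20 CID) and searched against human SwissProt.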

[1] = test system: Jurkat cell extract preys; conditions: for Difference log2: enrichment of prey
Method in brief: as §1

HeLa cell extract preys = conditions: PDZ-AP-MS fold change of the PBM-protein prey
Method in brief: as §1

[2] = PDZ-AP-MS fold change of the PBM-protein prey, bait MBP-PDZ DLG1_1
[3] = PDZ-AP-MS fold change of the PBM-protein prey, bait MBP-PDZ DLG1_2
[4] = PDZ-AP-MS fold change of the PBM-protein prey, bait MBP-PDZ SCRIB_1
[5] = PDZ-AP-MS fold change of the PBM-protein prey, bait MBP-PDZ SCRIB_2
[6] = PDZ-AP-MS fold change of the PBM-protein prey, bait MBP-PDZ SNX27
[7] = PDZ-AP-MS fold change of the PBM-protein prey, bait MBP-PDZ TX1BP3
[8] = bait SCRIB_1 PDZ, fold change of prey

B1: SRSF3 (protein, UniProt P84103 1-164, looked up)
Serine/arginine-rich splicing …: MHRDSCPLDCKVYVGNLGNNGNKTELERAFGYYGPLRSVWVARNPPGFAFVEFEDPRDAADAVRELDGRTLCGCRVRVELSNGEKRSRNRGPPPSWGRRPRDDYRRRSPPPRRRSPRRRSFSRSRSRSLSRDRRRERSLSRERNHKPSRSFSRSRSRSRSNERK
**Q.** With B1 as the molecule, how does the “Fold changes, HaCat, DLG1_1” value (HaCat cell extract preys; [2]) read?
**A.** The value was 0.6471.

**Q.** And the “Fold changes, HaCat, DLG1_2” value (HaCat cell extract preys; [3])?
**A.** The value was 0.7027.

**Q.** And the “Fold changes, HaCat, SCRIB_1” value (HaCat cell extract preys; [4])?
**A.** The value was 0.4366.

**Q.** What about the “Fold changes, HaCat, SCRIB_2” value (HaCat cell extract preys; [5]) of the same molecule?
**A.** Its value is 0.378.

**Q.** And the “Fold changes, HaCat, SNX27” value (HaCat cell extract preys; [6])?
**A.** The value was 0.5499.

**Q.** What about the “Fold changes, HaCat, TX1BP3” value (HaCat cell extract preys; [7]) of the same molecule?
**A.** The value was 0.6457.

**Q.** And the “Fold changes, Jurkat, DLG1_1” value [1, 2]?
**A.** The value was 0.942.

**Q.** And the “Fold changes, Jurkat, DLG1_2” value [1, 3]?
**A.** The value was 1.581.

**Q.** And the “Fold changes, Jurkat, SCRIB_1” value [1, 4]?
**A.** The value was 0.6991.

**Q.** What about the “Fold changes, Jurkat, SCRIB_2” value [1, 5] of the same molecule?
**A.** Its value is 0.9858.

**Q.** What about the “Fold changes, Jurkat, SNX27” value [1, 6] of the same molecule?
**A.** The value was 1.323.

**Q.** And the “Fold changes, Jurkat, TX1BP3” value [1, 7]?
**A.** The value was 0.7942.

**Q.** And the “Fold changes, HeLa, DLG1_1” value (HeLa cell extract preys; bait MBP-PDZ DLG1_1)?
**A.** Its value is 8.89.

**Q.** What about the “Fold changes, HeLa, DLG1_2” value (HeLa cell extract preys; bait MBP-PDZ DLG1_2) of the same molecule?
**A.** The value was 0.7503.

**Q.** What about the “Fold changes, HeLa, SCRIB_1” value (HeLa cell extract preys; bait MBP-PDZ SCRIB_1) of the same molecule?
**A.** The value was 8.2529.

**Q.** What about the “Fold changes, HeLa, SCRIB_2” value (HeLa cell extract preys; bait MBP-PDZ SCRIB_2) of the same molecule?
**A.** Its value is 6.813.

**Q.** And the “Fold changes, HeLa, SNX27” value (HeLa cell extract preys; bait MBP-PDZ SNX27)?
**A.** Its value is 0.891.

**Q.** What about the “Fold changes, HeLa, TX1BP3” value (HeLa cell extract preys; bait MBP-PDZ TX1BP3) of the same molecule?
**A.** The value was 0.5408.

B2: ARHGEF6 (protein, UniProt Q15052 1-776, looked up)
Rho guanine nucleotide …: MNPEEQIVTWLISLGVLESPKKTICDPEEFLKSSLKNGVVLCKLINRLMPGSVEKFCLDPQTEADCINNINDFLKGCATLQVEIFDPDDLYSGVNFSKVLSTLLAVNKATEDQLSERPCGRSSSLSAANTSQTNPQGAVSSTVSGLQRQSKTVEMTENGSHQLIVKARFNFKQTNEDELSVCKGDIIYVTRVEEGGWWEGTLNGRTGWFPSNYVREIKSSERPLSPKAVKGFETAPLTKNYYTVVLQNILDTEKEYAKELQSLLVTYLRPLQSNNNLSTVEVTSLLGNFEEVCTFQQTLCQALEECSKFPENQHKVGGCLLSLMPHFKSMYLAYCANHPSAVNVLTQHSDELEQFMENQGASSPGILILTTNLSKPFMRLEKYVTLLQELERHMEDTHPDHQDILKAIVAFKTLMGQCQDLRKRKQLELQILSEPIQAWEGEDIKNLGNVIFMSQVMVQYGACEEKEERYLMLFSNVLIMLSASPRMSGFIYQGKIPIAGTVVTRLDEIEGNDCTFEITGNTVERIVVHCNNNQDFQEWLEQLNRLIRGPASCSSLSKTSSSSCSAHSSFSSTGQPRGPLEPPQIIKPWSLSCLRPAPPLRPSAALGYKERMSYILKESSKSPKTMKKFLHKRKTERKPSEEEYVIRKSTAALEEDAQILKVIEAYCTSANFQQGHGSSTRKDSIPQVLLPEEEKLIIEETRSNGQTIMEEKSLVDTVYALKDEVRELKQENKRMKQCLEEELKSRRDLEKLVRRLLKQTDECIRGESSSKTSILP
**Q.** Which results are given for B2?
**A.** Difference log2 (HaCat cell extract preys; bait SCRIB_1 PDZ vs MBP, enrichment of prey): 5.7166; Ratio SCRIB_1/MBP (HaCat cell extract preys; [8]): 52.5856; Difference log2 ([1]; bait SCRIB_1 PDZ vs MBP): 4.28; Ratio SCRIB_1/MBP [1, 8]: 19.4266; Difference log2 ([1]; bait TX1BP3 PDZ vs MBP): 7.045; Ratio TX1BP3 / MBP ([1]; bait TX1BP3 PDZ, fold change of prey): 132.089
